Substrate: CC(=O)Oc1cccc2ccccc12
Assay: purified protein
Type: biochemical, Aspergillus oryzae
Conditions: 50 mM sodium phosphate pH 8.0, 30 °C (general assay conditions)

B1: AoAxeB (Aspergillus oryzae RIB40) (protein)
chain: AGSAGCGQPLPPSQNPGGSSYGVNFTLSAGTQRFYRIHIPSNYNVNTPTPLIFSFHGRGKTAESQEKLSQFSNEDWNPDAIAVYPQGLNKEWQGDPHSKDVDDIAFTMEMLDYFQEKFCIDSTRVYAAGKSNGGGFTNLLACDPTASTRIAAFAPVSGAYYQDVSEEACHPTTVPIKCSPGRPSIPILEFHGTADKTIPYGGGGRRGECLPSIPHFVREWSKRLGYGLHNTTKELYDGNVQEYQYGNGDNRGIVTHYRIGGLGHDWPSVRPNSDNPNGTYLDATPIIVKFFKQWVLPGSSEDNQSEAR
- Km: 240 ± 120 µM
- kcat: 0.17 ± 0.03 s⁻¹
